According to JP2018038398A (dated 2018):

Assays:
[1] = biological target: T1, ヒトTFPI(American Diagnostica) (human, UniProt P10646 29-304, limits assumed); experiment: ELISA screen of Fab lysates on coated human TFPI
T1 construct: Coated on plates (ELISA) or coupled to a CM5 chip (Biacore); also called human TFPI; hTFPI
T1 sequence (looked up): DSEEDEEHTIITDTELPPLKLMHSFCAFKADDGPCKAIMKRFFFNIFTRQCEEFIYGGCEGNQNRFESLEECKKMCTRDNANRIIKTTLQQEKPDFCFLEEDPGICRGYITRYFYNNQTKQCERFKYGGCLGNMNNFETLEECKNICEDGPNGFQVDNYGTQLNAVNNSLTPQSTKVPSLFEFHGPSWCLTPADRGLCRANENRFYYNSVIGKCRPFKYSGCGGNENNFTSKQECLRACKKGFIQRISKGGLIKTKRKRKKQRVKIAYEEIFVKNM

[2] = biological target: T1, ヒトTFPI(American Diagnostica); experiment: ELISA on coated human TFPI
[3] = biological target: T2, マウスTFPI(R&D System) (mouse, UniProt O54819 29-289, limits assumed); experiment: ELISA on coated mouse TFPI
T2 construct: also called mouse TFPI; mTFPI
T2 sequence (looked up): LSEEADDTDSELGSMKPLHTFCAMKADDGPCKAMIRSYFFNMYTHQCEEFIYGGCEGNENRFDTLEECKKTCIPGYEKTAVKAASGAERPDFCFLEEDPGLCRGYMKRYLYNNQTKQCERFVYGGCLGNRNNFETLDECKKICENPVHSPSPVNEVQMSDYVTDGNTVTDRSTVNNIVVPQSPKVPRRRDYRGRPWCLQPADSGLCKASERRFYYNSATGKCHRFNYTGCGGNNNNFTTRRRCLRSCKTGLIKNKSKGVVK

[4] = biological target: T2, マウスTFPI(R&D System); experiment: ELISA on coated mouse TFPI, IgG against Fab
[5] = biological target: T1, ヒトTFPI(American Diagnostica); experiment: ELISA on coated human TFPI, IgG against Fab

B1: TP-2A8 (Fab, V domains shown)
VH: QVQLVESGGGLVQPGGSLRLSCAASGFTFRSYGMSWVRQAPGKGLEWVSSIRGSSSSTYYADSVKGRFTISRDNSKNTLYLQMNSLRAEDTAVYYCARKYRYWFDYWGQGTLVTVSS
VL: DIELTQPPSVSVAPGQTARISCSGDNLRNYYAHWYQQKPGQAPVVVIYYDNNRPSGIPERFSGSNSGNTATLTISGTQAEDEADYYCQSWDDGVPVFGGGTKLTVLG
notes: Human Fab from HuCAL Gold; also called Fab-2A8; TP-2A8-Fab
[1]
  binding result: binds

B2: TP-4B7 (Fab, V domains shown)
VH: QVQLQQSGPGLVKPSQTLSLTCAISGDSVSSNSAAWSWIRQSPGRGLEWLGIIYKRSKWYNDYAVSVKSRITINPDTSKNQFSLQLNSVTPEDTAVYYCARWHSDKHWGFDYWGQGTLVTVSS
VL: DIVMTQSPLSLPVTPGEPASISCRSSQSLVFSDGNTYLNWYLQKPGQSPQLLIYKGSNRASGVPDRFSGSGSGTDFTLKISRVEAEDVGVYYCQQYDSYPLTFGQGTKVEIKR
notes: Human Fab from HuCAL Gold
[1]
  binding result: binds

B3: TP-2G6 (Fab, V domains shown)
VH: QVQLQQSGPGLVKPSQTLSLTCAISGDSVSSSSAAWSWIRQSPGRGLEWLGIIYYRSKWYNDYAVSVKSRITINPDTSKNQFSLQLNSVTPEDTAVYYCARHSMVGFDVWGQGTLVTVSS
VL: DIVLTQSPATLSLSPGERATLSCRASQYVTSSYLAWYQQKPGQAPRLLIYGSSRATGVPARFSGSGSGTDFTLTISSLEPEDFATYYCQQYSSSPITFGQGTKVEIKR
notes: Human Fab from HuCAL Gold, purified over Ni-NTA; also called 2G6-Fab
[2]
  EC50: 0.48 nM
[3]
  EC50: 5.18 nM

B4: 2G6−IgG (antibody, V domains shown)
VH: B3 VH
VL: B3 VL
notes: also called IgG-2G6; 2G6-IgG
[4]
  fold change of EC50 against 2G6-Fab: 10 fold
[2]
  EC50: 0.22 nM
[5]
  fold change of EC50 against 2G6-Fab: 2 fold
[3]
  EC50: 0.51 nM
